Source: US9526791B2, “Weakly acidic pH-responsive peptide and liposome containing same” (Taiho Pharmaceutical Co., Ltd., priority 2012, dated 2016)
Where two headings read alike, the source gives them in different places.

Experiments:
[1] = format: physicochemical; conditions: for Calcein leakage rate (%): calcein-encapsulated liposome, 37° C., 10 minutes; for Leakage of calcein (in words): pH 6.5 (pH changed from 7.4 to 6.5)
Method: • (1) After a peptide-containing lipid membrane was prepared as in Example 4, a calcein (Mw: 622.55) 30-mM solution was added, and calcein-encapsulated liposome 1 was prepared as in Example 4. Unencapsulated calcein was removed by gel filtration (Sephadex G50).
To measure the leakage of the encapsulated calcein from the liposomes, the liposomes were diluted and suspended in buffers having different pHs, and then incubated at 37° C. for 10 minutes. The fluorescence (λex: 488 nm, λem: 517 nm) of the leaked calcein was measured by a plate reader (Infinite M200, produced by Tecan). The fluorescence of the leaked calcein when the liposomes were mixed with 1% Triton-X100 was regarded as complete leakage. The leakage rate was calculated by the following formula. […] Leakage rate(%)=(Fsample−FpH 7.4)/(Ftriton−FpH 7.4)×100
Fsample Fluorescence of calcein leaked from the liposomes at each pH
FpH 7.4: Fluorescence of calcein leaked from the liposomes at a pH of 7.4
Ftriton: Fluorescence of calcein when the liposomes were mixed with 1% Triton-X100.
Calcein was encapsulated in liposome 1 obtained in Example 4, and liposomes 2 and 3 obtained in Example 5, and pH responsiveness was examined as in Test Example 1.
The calcein leakage rate of the calcein-encapsulated liposomes obtained in Examples 4, 6, and 7, and Comparative Examples 4 to 6 at a pH of 7.4 and a pH of 6.5 was calculated as in Test Example 1.

[2] = Observation of liposomes into which comparative compound 3 was introduced (aggregation); format: physicochemical; conditions: pH 6.5 or less
Method: Comparative liposome 3 into which comparative compound 3 obtained in Comparative Example 3 had been introduced was produced according to the method described in Example 4, and calcein-encapsulated comparative liposome 3 was prepared by the same production method as in Test Example 1.
Thus, the pH-responsiveness was insufficient.

[3] = CD spectra of peptide alone or peptide-introduced liposome under different pH conditions; format: physicochemical; conditions: PBS (−), peptide concentration 20 μM
Method: Peptide compound 1 obtained in Example 1 alone and a peptide-introduced liposome obtained according to Example 4 (each having a peptide concentration of 20 μM) were suspended in PBS (−) with different pHs, and CD (circular dichroism) spectra were recorded on a J-720WI spectropolarimeter (produced by JASCO Corporation).
The “α-helix” represents an α-helix structure, and the “random coil structure” represents a state in which a clear secondary structure is not formed.

## EGEGLALLAHALLAHAALAHAALA [Peptide compound 3]
[1]; pH 6.5
  Calcein leakage rate (%): 65%
[1]; pH 7.4
  Calcein leakage rate (%): 0%

## GHHGLALLHALHLAAAALHAAALA [Peptide compound 2]
[1]; pH 6.5
  Calcein leakage rate (%): 90%
[1]; pH 7.4
  Calcein leakage rate (%): 0%

## HGHGGGGGGGGGAHALLAHAALAH [compound 2]
[1]
  Leakage of calcein (in words): remarkably reduced
[1]; pH 6.5
  Calcein leakage rate (%): 30%
[1]; pH 7.4
  Calcein leakage rate (%): 0%

## HGHGLALLAHALLAHAAAAL [compound 3]
[2]
  Aggregation of liposomes: remarkably aggregated
[1]; pH 7.4
  Calcein fluorescence on attempted encapsulation (liposome stability): fluorescence intensity at the same level as that when Triton treatment was performed

## HGHGLALLAHALLAHAALAHAALA [Peptide compound 1]
[3]; as the pH was reduced
  Secondary structure from CD spectrum: sequentially converted into a random coil structure
[3]; pH 7.4
  Secondary structure from CD spectrum: α-helix
[1]; pH 6.5
  Calcein leakage rate (%): 100%
[1]; pH 7.4
  Calcein leakage rate (%): 0%

## HHGGLLLLHHHAAAAALLLAAAAA [compound 1]
[1]
  Leakage of calcein (in words): remarkably reduced
[1]; pH 6.5
  Calcein leakage rate (%): 30%
[1]; pH 7.4
  Calcein leakage rate (%): 0%
